According to the DeepSol protein solubility set:

Test: soluble on expression in E. coli; label from the status in PepcDB or PDB records

| Sequence | soluble on expression in E. coli |
| --- | --- |
| GPGSMLAQCSLFVQPRVFKGLVMRSHAPVACWAASLPWMTQQQRRRSSFASATPAAPSTDAGKGNYFHFFRIAKHPDLDVAALQKKYHNLQRLVHPDQQQVQAQQQQAEAADVAPATSSSPLPFACTSNEAKSSTDVSTYANAAYETLRAPYSRCRYLSRLVKAEEVKGNPLSAAEEEELLVEDDQRTMKAREVRPDAPMSDDFLMEMLAMNELIFAGDSSDEGVRQQWSVLRFDLEDRAVGYFKDAIKSWNDGDMGAFHHIVHEWTYVATALNNLKERMLE | not soluble |
| MRFFNKYKLFLDCAYKHLNIVLLDFKTNTVVDQLTIPVQQNLTELAVYHLEKLLKKNKVRNNTVRQFYVTTGPGSFTGQRVGAIIAKTWCTVNPNCQLFALNSLRLQIPYGCGISKISAGNEKNYCGLFTETTSEIALLAKPDFVKLCKANTELPVYENFENIDSIEELFLNNIERFELVENPQNLELLYLKDPVN | soluble |
| MGSDKIHHHHHHMKFIHTSDWHIGRQLHNQSLLDDQAFVLEQIIALADEHKVDAVIVAGDIYDRSIPPANAVALLDDVLNRLVHDLGLQVIMIAGNHDGHERLGFAAKQMAASGLHIIGPLSADIHPITLSSSSGDVVFYPLPYAEPATVRQVFECEAASHEAAMTLLLEQVRQHDSQGLPKVVISHCFLDGGSESESERPLSIGGADKISPTLFTEFDYVALGHLHGPQYKGAEHVRYSGSILKYSFSEQHQHKSVTLVELSAQTPIKIRLLPLTSIRDVRILEGELATLLVQGKTDIKREDYLMVRLLDKHAILDAMGKLRAVYPNVLHLERTGLMAGQQQVTLSRDHIKKGEMDMFRDFFSQVSGESLTQAQQAVMDELLTKLHNEERQA | not soluble |
| MSLEKYGNVNDFLDDDLVKNGNPDVYIVVGENSATPDVTSANKISAKIGTMTYTEKVVEDTSTTGYQIIGESESINLLDGTDKLDSAGTKKSWILVIGADDSYSDYFDDDEGNSFSYSEFSEADKTRSLGELGYLLKLYDIDPKNHFESDDDASELVFVRITDSDKNANSQTYNIEKDMVYVSIVYPNQISAFKLAKELEEGYEIPFLGDKYRIVKIDEDDDIIYLGTASYEGTIAHNEYISSGEYQVVLGEILENEDEYRVEISVLRNGNMIEEHTETEGHHHHHH | soluble |
| MEIRTFLERALKEDLGHGDLFERVLEKDFKATAFVRAKQEGVFSGEKYALELLEMTGIECVQTIKDKERFKPKDALMEIRGDFSMLLKVERTLLNLLQHSSGIATLTSRFVEALNSHKVRLLDTRKTRPLLRIFEKYSVLNGGASNHRLGLDDALMLKDTHLRHVKDLKSFLTHARKNLPFTAKIEIECESFEEAKNAMNAGADIVMCDNLSVLETKEIAAYRDAHYPFVLLEASGNISLESINAYAKSGVDAISVGALIHQATFIDMHMKMA | soluble |
| YASRDMDIKRLGKAVMAAAGSPGHFPDVAIPGGVRALPDPQALAELRLPENYEESFEPVPYDGFDMMLTSHGTLDPLGDHVTARSGEERITFDLQTWADHVAESRPGDPAPRPLVHGHPYRVGPYAHGEAMVPRSLAEIRRIIADPRLCEGEFRKESSILSGIGVGAVEGPRGLLVHRYVANEDGVLVDCQILTPTAQNEAWLASMLEASLQQDSDRGVELSVENSIRTANPCLPCSSAPEGHMGVVIEKGN | not soluble |
| MGSDKIHHHHHHMAPRGNQMLGNAHFRKHWHKRIKTWFDQPARKLRRRQNRQAKAVEIAPRPVAGLLRSVVRCPQKRYNTKTRLGRGFSLQELKAAGISQAQARTIGIAVDVRRTNKTAEGLKANADRLKEYKAKLILFPKKASAPKKGDSSAEELKVAAQLRGDVLPLSHTITFDEPRQVTDAERKVEIFRLLRKERADKKYRGKREKRAREAAEENK | not soluble |
| MNDTKITGGDLYDLWRVANINMPNVQAVYADACNVIHEINVANEDKFGRAHPGWAALGQIYEQCLFLTEGSLFSVAHYIDKAVKEFKEVDAEAARDLEAIFKNPNDHNPDDELTGDEKPKDVEVPNWWND | not soluble |
| MSLNNQANKLRNLMSQNGTKKSQNTHFIAITSGKGGVGKSTISANLANVLANNGYKVGLFDADIGLANLDVILNVRIQKNLLHVLRGECSLEDILIEVKPNLWLIPGESGDEILKYNDKNIYERFLNQASILDELDFLIIDTGAGIGGNILNFLEMADEVIVVTVPDPAAITDAYATIKTTSKTKENLLMLFNVVKNENEALKVFENIKKVADANIKNPLNLEFLGHLSASKDVSGSIKKRTLFSDENTASSDEIKALASKLLYRLERKVLDNVSNRSFSSFFRKIIEREGHHHHHH | soluble |
| SLKGRWVKYLLMGTVVAMLAACSSKPTDRGQQYKDGKFTQPFSLVNQPDAVGAPINAGDFAEQINHIRNSSPRLYGNQSNVYNAVQEWLRAGGDTRNMRQFGIDAWQMEGADNYGNVQFTGYYTPVIQARHTRQGEFQYPIYRMPPKRGRLPSRAEIYAGALSDKYILAYSNSLMDNFIMDVQGSGYIDFGDGSPLNFFSYAGKNGHAYRSIGKVLIDRGEVKKEDMSMQAIRHWGETHSEAEVRELLEQNPSFVFFKPQSFAPVKGASAVPLVGRASVASDRSIIPPGTTLLAEVPLLDNNGKFNGQYELRLMVALDVGGAIKGQHFDIYQGIGPEAGHRAGWYNHYGRVWVLKTAPGAGNVFSG | not soluble |
| GPGSMFSGSEGSVRTDDTNVEPPPIPKTRGPLLFEGVRLAGGPPRRTPKRSCSRYFSVTRKTTSAGTDECEHAPPGFSLVNTPSTQDVSPSAKMELPCSAAAHYDDDDDDDDIIPSTAPLPTPHPVMHRVLATGQPNGVSRLLPFDEYVVEEVTPRKCSSISADTSGAAPSTPQGTELREVTQVEEQSPLPAVPEMCESPTRFTLGPRLPVNGEKVRMDFYFLQQEVDAWAKPIETTADVEWHKQHLQETRVAMRSLLHELEVLIAREAAEHERLCIARGFSAMESTSDGKCTYAGETDVVSKTRGKEWKQEELETLEAWRVEKGALLAQKSKLLREHQELQYRLRSHLSGSATGRVTPSPNTSVSRSNKSRGDEGNIGGMSTPLDNGVAQLRLEISEMNAKLKKLEDAYKVLHDNQQWRQGEFDDEYGALCRALATATAGEINNRTALQDTIREAEGVRANCLRQGDASLVSLMERGLSEAKAALKCHDTEQYETK | not soluble |
| GPMNQLDQLGTRINLICNVFDKWIGQQDLNYNLFAVLYTLATEGSRTQKHIGEKWSLPKQTVSGVCKTLAGQGLIEWQEGEQDRRKRLLSLTETGKAYAAPLTESAQEFSDKVFATFGDKRTTRLFADLDALAEVMEKTISENKK | soluble |
| MCVVIFLKFLFSDNGNNQHGTEAAFGRLAQSYRIQDLLFIIVIFFRAIHIMMFHRPPSARPPLNHVDQLKSLQATALGKPGMRSQATEPQPIGNTVSPLEFRIHDMNRRLYIFSSTGVSENDQQQWWDAFSHEFFDDDCKLWFVIGSEPVAFASRERYIINRQFIPKFFRSIFDSGMRELQYVLRGPSRECTLANGSQAYENENVLQITRYDQSSQFEVNTEGKLYVEFAPFDEVMNYRIKAWTLELKRSNEFVYNQNTADYRVEAQNPEQENKPRMGFFKSTFNLMTMLKILDPMQSIMSSAKSAPAITPREVMKRTLFQHHQVRQQNMRQQQLNQQMMIPAPEPEKPKPARKRQRKPAANPRGSKKATAAAAAAAAAATNGVPPTVPTASPANNQQFPPNPMTSQFQQMSYPDVMVVGEPSMMGSEFGENDERTISRVENSQYDPNAMQMQSLGQGPNSSMNINGRNMMNQHHPGMQPPPGQQHMPPHSMGSQMPTSMHNPMHMPPGSMQGHGGMPPMPSTMANQMPPPNLPPHTMSNQMPNSRMPPMQGQMPPSGMPGQMSNPNMMGSGMPPMSMSSQMPGSMSNPMPNQMPGGMQMNQMPPPNYSQYTGGPPPQWPPPNSAMITG | not soluble |
